Four proteins from paper PMC9515098, “Structural basis for the activity regulation of a potassium channel AKT1 from Arabidopsis” (Nature Communications, 2022) can be followed below.

As usually defined, the stoichiometry N is a count of units in the complex or per binding partner.

Data set [1] deals with the molecule itself. Nature of the data set: cryo-EM structure; cryo-EM, 2D classification only (preliminary analysis); no map or model reported.
Data set [2] concerns the molecule itself. The data set is described as follows: cryo-EM structure; single-particle cryo-EM of the purified channel from Sf9 cells; 25 mM Tris-HCl pH 7.4, 150 mM KCl, 0.1% digitonin.
Data set [3] deals with the molecule itself. Nature of the data set: cryo-EM structure; single-particle cryo-EM of AKT1 co-expressed with CIPK23 and CBL1 in HEK293 cells; 0.08% digitonin, 0.5 mM CaCl2, 5 mM MnCl2, 1 mM ATP, 1 mM sodium orthovanadate; map at about 11 Å.

B1: AKT1_(16-857), AKT1 lacking the N-terminal 15 residues (domain or fragment)
chain: not shown
notes: source: purified
With B1, in data set [1], the binding result is given as “binds”.

B2: Arabidopsis thaliana potassium channel AKT1, wild type (Flag-tagged, from Sf9 cells) (natural protein)
chain: not shown
notes: Potassium channel AKT1, Arabidopsis thaliana, UniProt Q38998; Homotetramer in the cryo-EM structure; also called WT AKT1; AKT1 WT
Turning to B2, the “stoichiometry N” value in data set [2] stood at 4.

B3: AKT1 Asp379Ala, constitutively-active variant (Flag-tagged, from Sf9 cells) (natural protein)
chain: not shown
notes: Potassium channel AKT1, Arabidopsis thaliana, UniProt Q38998, with the point mutation Asp379Ala; Two cryo-EM classes (4-fold and 2-fold symmetric cytoplasmic domain); also called AKT1-D379A; constitutively-active mutant; source: Sf9 insect cells (Bac-to-bac baculovirus), purified by the same protocol as AKT1
For the protein B3, the binding result in data set [2] is on record as “binds”.

B4: Phosphorylated AKT1 (AKT1 co-expressed with CIPK23 and CBL1 in HEK293 cells) (natural protein)
chain: not shown
modifications: phosphoserine at Ser26 and Ser338 (found by mass spectrometry after co-expression with CIPK23 and CBL1)
notes: Potassium channel AKT1, Arabidopsis thaliana, UniProt Q38998
B4: in data set [3], the binding result is listed as “binds”.
